In data set [1] the test system is OmpR-6His (Dickeya dadantii 3937 (EC3937)). As to the kind of experiment: EMSA. The following applies: 10 mM Tris pH 7.5, 50 mM NaCl, 0.5 mM DTT, 1 mM MgCl2, 2.5% glycerol; 20 min at room temperature; 50 ng DNA in 20 ul; 6% acrylamide-TBE gel. For orientation: In EMSA bound probe runs differently from free probe, usually more slowly.
The subject of data set [2] is RcsB-6His (Dickeya dadantii 3937 (EC3937)?). In words: EMSA. Particulars: 10 mM Tris pH 7.5, 50 mM NaCl, 0.5 mM DTT, 1 mM MgCl2, 2.5% glycerol; 20 min at room temperature; 50 ng DNA in 20 ul; 6% acrylamide-TBE gel.

For opgC promoter region, the binding amounted to 500 ng in data set [1] and 300 ng in data set [2].

Source of the values: publication PMC4726272.
